For one experiment, the target named is VEGF-A 189. Kind of experiment: ELISA.
In the next experiment the target is VEGF-A 165. Kind of experiment: ELISA. (An ELISA detects its analyte on a solid surface through an enzyme-linked reagent.)

One substance from paper PMC11246345 can be followed below.

Consider US-aflibercept (Fc fusion), for which the %relative binding activity (against a reference standard) with VEGF-A 189 and with VEGF-A 165 was 97% throughout.
